Measurements as given in patent publication US5679770A, “Polypeptide, DNA fragment encoding the same, drug composition containing the same and process for producing the same” (Mochida Pharmaceutical Co., Ltd., priority 1991, dated 1997).

T1: Human neutrophil elastase (Homo sapiens, UniProt P08246)
T1 construct: purchased CALBIOCHEM
T1 sequence (P08246 30-267): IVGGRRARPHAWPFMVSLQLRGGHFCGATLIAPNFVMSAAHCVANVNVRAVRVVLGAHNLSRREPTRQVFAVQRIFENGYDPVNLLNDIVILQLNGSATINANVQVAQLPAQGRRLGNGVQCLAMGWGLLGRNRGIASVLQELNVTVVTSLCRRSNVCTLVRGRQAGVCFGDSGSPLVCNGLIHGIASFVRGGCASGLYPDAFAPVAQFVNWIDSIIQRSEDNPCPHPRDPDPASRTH


Assays:
human trypsin = target: T2, human trypsin (Homo sapiens, UniProt P07477); assay: Human trypsin-inhibiting activity (synthetic substrate S-2444); format: biochemical; details: purified polypeptide, various concentration levels
T2 construct: purchased Calbiochem
Method: The purified polypeptide of the present invention was dissolved in 100 μl of distilled water. Concentration of polypeptide in the thus prepared solution was determined based on its bovine trypsin-inhibiting activity measured in accordance with the above procedure (1) using UTI (Mochida Pharmaceutical Co., Ltd.; cf. H. Ohnishi et al., Nippon Yakurigaku Zasshi, vol.85, pp.1-6, 1985) as a standard. The polypeptide solution was then diluted to various concentration levels with 0.03% BSA/0.2M triethanolamine-HCl buffer (pH 7.8) for use in the activity measurement. Separately from this, human trypsin (Calbiochem) was dissolved in 1 mM HCl to a concentration of 1,000 SU/ml and the solution was further diluted with the 0.03% BSA/0.2M triethanolamine-HCl buffer (pH 7.8) to prepare a 1.25 SU/ml solution of human trypsin. Thereafter, human trypsin-inhibiting activity was measured in the same manner as described in the above procedure (1) using the aforementioned synthetic substrate S-2444. Separately from this, polypeptide AN68 (sequence described in Example 17(3)) was diluted to various concentration levels. Thereafter, human trypsin-inhibiting activity was measured in the same manner as described in the above procedure (1) and compared with the trypsin-inhibiting activity of the novel polypeptide of the present invention.

[1] = target: T1, Human neutrophil elastase; assay: Human elastase-inhibiting activity (substrate STANA); format: biochemical; details: for elastase-inhibiting activity, times higher than that of polypeptide Q19K/Y46D: relative to Q19K/Y46D; for elastase-inhibiting activity, times higher than that of polypeptide AN68: relative to control AN68
Method: The purified polypeptide of the present invention was dissolved in 100 μl of distilled water. The concentration of this solution was determined based on its bovine trypsin-inhibiting activity using UTI as a standard. The solution was then diluted to various concentration levels with 0.1% BSA/27 mM CaCl2 /133 mM Tris-HCl buffer (pH 7.5) for use in the activity measurement. The aforementioned AN68 was also diluted in the same manner for use as a control. Human elastase-inhibiting activities in the test samples and the control were measured in accordance with the method of Ogawa et al. (Ogawa, M. et al., Res. Commun. Chem. Pathol. Pharmacol., vol.55, pp.271-274, 1987) using a synthetic compound STANA (Peptide Institute Inc.) as a substrate.
Human neutrophil elastase (CALBIOCHEM) was dissolved in 27 mM CaCl2 /133 mM Tris-HCl buffer (pH 7.5) to a concentration of 100 μg/ml and the solution was further diluted with 0.1% BSA/27 mM CaCl2 /133 mM Tris-HCl buffer (pH 7.5) to prepare a 4 μg/ml elastase solution. 100 mM STANA solution was prepared by dissolving it in N-methyl-2-pyrrolidone and the solution was further diluted with 0.1% BSA/27 mM CaCl2 /133 mM Tris-HCl buffer (pH 7.5) to prepare a 20 mM STANA solution.
Next, 50 μl of the test sample or positive control was mixed with 50 μl of the elastase solution and 50 μl of 0.1% BSA/27 mM CACl2 /133 mM Tris-HCl buffer (pH 7.5). After incubation at 37° C. for 10 minutes, 50 μl of the STANA solution was added to the mixture to start the reaction. The reaction was carried out at 37° C. for 20 minutes and then stopped by adding 50 μl of 50% acetic acid solution to the reaction mixture. Thereafter, absorbance at a wavelength of 405 nm was measured using a spectrophotometer. In this instance, in order to eliminate absorbance of various solutions in the reaction product, a blank solution was prepared by mixing 50 μl of the elastase solution with 50 μl of 50% acetic acid and then with 50 μl of each test sample or the control, 50 μl of 0.1% BSA/27 mM CaCl2 /133 mM Tris-HCl buffer (pH 7.5) and with 50 μl of the STANA solution.
The results are shown in FIG. 54 and FIG. 55 and FIG. 67 to FIG. 69. In these figures, polypeptide concentration in the reaction solution is expressed as its bovine trypsin-inhibiting activity. Also, remaining human elastase activity was expressed by percentage based on the absorbance of a control reaction mixture in which 50 μl of the 0.1% BSA/27 mM CaCl2 /133 mM Tris-HCl buffer (pH 7.5) was used instead of the test sample or the control.

Row | Molecule | human trypsin inhibition (human trypsin) | elastase-inhibiting activity, times higher than that of polypeptide Q19K/Y46D [1] | elastase-inhibiting activity, times higher than that of polypeptide AN68 [1] | elastase-inhibiting activity, times higher than that of polypeptide Q19K/Y46E ([1]; relative to Q19K/Y46E from E. coli JE5505(pM721)) [times]
1 | R11Q/Q19K/Y46D: formula 1 sequence with Gln for position 7 Arg, Lys for position 15 Gln, Asp for position 42 Tyr; SEQ. I.D. NO. 37 (protein) AACNLPIVQGPCRAFIKLWAFDAVKGKCVLFPYGGCQGNGNKFDSEKECREYCGVPGDGDEELLRFSN | can inhibit human trypsin in a concentration-dependent manner | about 3 times | about 3 times | –
2 | R11A/Q19K/Y46D: formula 1 sequence with Ala for position 7 Arg, Lys for position 15 Gln, Asp for position 42 Tyr; SEQ. I.D. NO. 43 (protein) AACNLPIVAGPCRAFIKLWAFDAVKGKCVLFPYGGCQGNGNKFDSEKECREYCGVPGDGDEELLRFSN | can inhibit human trypsin in a concentration-dependent manner | about 4 times | about 4 times | –
3 | R11E/Q19K/Y46E: formula 1 sequence with Glu for position 7 Arg, Lys for position 15 Gln, Glu for position 42 Tyr; SEQ. I.D. NO. 40 (protein) AACNLPIVEGPCRAFIKLWAFDAVKGKCVLFPYGGCQGNGNKFESEKECREYCGVPGDGDEELLRFSN | can inhibit human trypsin in a concentration-dependent manner | – | about 5 times | 6
4 | R11D/Q19K/Y46D: formula 1 sequence with Asp for position 7 Arg, Lys for position 15 Gln, Asp for position 42 Tyr; SEQ. I.D. NO. 38 (protein) AACNLPIVDGPCRAFIKLWAFDAVKGKCVLFPYGGCQGNGNKFDSEKECREYCGVPGDGDEELLRFSN | can inhibit human trypsin in a concentration-dependent manner | about 3 times | about 3 times | –
5 | R11L/Q19K/Y46D: formula 1 sequence with Leu for position 7 Arg, Lys for position 15 Gln, Asp for position 42 Tyr; SEQ. I.D. NO. 39 (protein) AACNLPIVLGPCRAFIKLWAFDAVKGKCVLFPYGGCQGNGNKFDSEKECREYCGVPGDGDEELLRFSN | can inhibit human trypsin in a concentration-dependent manner | about 2 times | about 2 times | –
6 | R11S/Q19K/Y46D: formula 1 sequence with Ser for position 7 Arg, Lys for position 15 Gln, Asp for position 42 Tyr; SEQ. I.D. NO. 42 (protein) AACNLPIVSGPCRAFIKLWAFDAVKGKCVLFPYGGCQGNGNKFDSEKECREYCGVPGDGDEELLRFSN | can inhibit human trypsin in a concentration-dependent manner | about 10 times | about 10 times | –
7 | R11N/Q19K/Y46D: formula 1 sequence with Asn for position 7 Arg, Lys for position 15 Gln, Asp for position 42 Tyr; SEQ. I.D. NO. 41 (protein) AACNLPIVNGPCRAFIKLWAFDAVKGKCVLFPYGGCQGNGNKFDSEKECREYCGVPGDGDEELLRFSN | can inhibit human trypsin in a concentration-dependent manner | about 5 times | about 5 times | –
